# Test results as given in the RNAGym collection of RNA variant scans (doi:10.1073/pnas.2313332121).
# B1: TPR t1 (parent)
# chain: GACCAAUCUGCCCUCAGAGCUCGAGAACAUCUUCGGAUGCAGAGGAGGCAGGCUUCGGUGGCGCGAUAGCGCCAACGUCCUCAACCUCCAAUGCAUCCCACCACAUGAUGAUGCCUGAAGAGCCUUGGUUUUUUG
# Variants of: B1
# Experiment: polymerase ribozyme fitness, log enrichment relative to wild type (log ratio); higher = more active; in vitro selection for triplet polymerase activity
# Method in brief: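 Fitness measures genotype enrichment against wild-type enrichment on a logarithmic scale, with inverse-variance-weighted averaging of replicates. The logarithm is base 2, and genotypes were kept only with ≥10 input reads and ≥1 read per output in Illumina sequencing. The sequenced libraries came from one triplicate in vitro selection round, including frozen incubation at −7 °C, of PCR-built, transcribed mutant libraries of each subunit of a heterodimeric triplet polymerase ribozyme.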
row,Variant,polymerase ribozyme fitness (log ratio)
1,GACCUAUCUGCCCUCAGAGCUCGAGAACAUCUUCGGAUGCAGAGGAGGCAGGCUUCGGUGGCGCGAUAGCGCCAACGUCCUCAACCUCCAAUGCAUCCCACCACAUGAUGAUGCCUCAAGAGCCUUGGUUUUUUG [A5U G117C],-2.92
2,GACCUAUCUGCCCUCAGAGCUCGAGAACAUCUUCGGAUGCAGAGGAGGCAGGCUUCGGUGGCGCGAUAGCGCCAACGUCCUCAAACUUCAAUGCAUCCCUCCACAUGAUGGUGCCUGAAGAGCCUUGGUUUUUUG [A5U C85A C88U A100U A111G],-2.1
3,GACCUAUCUGCCCUCAGAGCUCGAGAACAUCUUCGGAUGCAGAGGAAGCAGGCUUCGGUGGCGCGAUAGCGCCAACGUCCUCAACCUCCAAUGCAUCCCAUCACAUGAUGAUGCCUGAAGAGCCUUGGUUUUUUG [A5U G47A C101U],-1.94
4,GACCUAUCUACCCUCAGAGCUCGAGAACAUCUUCGGAUGCGGAGGAGGCAGGCUUCGGUGACGCGAUAGCGCCAACGUCCUCAACCUCCAAUGCAUCCCAUCACAUGAUGAUGCCUGAAGAGCCUUGGUUUUGUG [A5U G10A A41G G61A C101U U133G],-0.742
5,GACCUAUCUGCCCUCAGAACUCGAGAACAUCUUCGGAUGAAGAGGAGGCAGGCUUCGGUGGCGCGAUAGCGCCAACGUCCUCAACCUCCAAUGCAUCCCACCACAUGAUGGUGCCUGAAGAGCCUUGGUUUUUUG [A5U G19A C40A A111G],-2.76
6,GACCUAUCUGCCCUCAGAGCUCGAGAACAUCUUCGGAUGCAGAAGAGGCAGGCUUAGGUGGCGCGAUAGCGCCAACGUCCUCAACCUCCAAUGCAUCCCACCACAUGAUGAUGCCUGAAGAGCAUUGUUUUGCUG [A5U G44A C56A C124A G128U U132G U133C],-2.5
7,GACCUAUCUGCCCUCAGAGCUCGAGAACAUCUUCGGAUGCAGAGGAGGCAGGCUUCGGUGGCGCGAUAGCGCUAACGUCCUCAACCUCCAAUGCAUCCCACCACAUGAUGAUGCCUGAAGAACCUUGGAUUUUUG [A5U C73U G122A U129A],-2.07
8,GACCUAUCUGCCCUCAGAGCUCGAGAACAUCUUCGGAGGCAGAGGAGGCAGGCUUCGGUGGCGCGAUAGCGCCGACGUCCUCAACCUCCAAUGCAUCCCACCACAUGAUGAUGCCUGAAGAGCCUUGGUUUUUUG [A5U U38G A74G],-1.15
9,GACCUAUCUGCCCUCAGAGCUCGAGAACAUCUUCGGAUGCAGAAGUGGCAGGCUUUGGUGGCGCGAUAGCGCCAACGUCCUCAACCUCCAAUGCAUCCCACCACAUGAUGAUGCCUGAAGAGCCUGGGUUUUAUG [A5U G44A A46U C56U U126G U133A],-2.99
10,GACCUAUCUGCCCUCAGAGCUCGAGAACAUCUUCGGAUGCAGAGGAGGCAGGCUUCGGUGGCGCGAUAGCGCCAACGUCCUCAACCUCCAAUGCAUCCCACCACAUGAUAAUGCCUGAAGAGCCUUGGUUUUUUG [A5U G110A],-1
11,GACCUAUCUGCCCUCAGAGCUCGAGAACAUCUUCGGAUGCAGAGGAGGCAGGCUUCGGUGGCGCGAUAGCGCCAACGUCCUCAACCUCCAAUGCAUCCCACAACAUGAUGAUGCCUGAAGAGCCUUGGUUUUUUG [A5U C102A],-2.01
12,GACCUAGCUGCCCUCAGAGCUCGAGAACAUCUUCGGAUGCAGAGGAAGCAGGCUUCGGUGGCGCGAUAGCGACAACGUCCUCAACCUCCAAUGCAUCCCACCACAUGAUGAUGCCUGAAGAGCCUUGGUUUUUUG [A5U U7G G47A C72A],-0.365
13,GACCUAUCUGCCCUCAGAGCUCGAGAACAUCUUCGGAUGCAGACGAGGCAGGCUUCGGUGGCGCGAUAGCGCCAACGUCCUCAACCUCCAAUGCAUCCCACCACAUGAUGAUGCCUGAAGAGCCUUGGUUUUUUG [A5U G44C],-1.05
14,GACCUAUCUGCCCUCAGAGCUCGAGAACAUCUUCGGAUGCAGAGGAGGCAAGCUUCGGUGGCGCGAUAGCGCCAACGUCCUCAACCUCCAAUGCAUCCCACCACAUGAUGAUACCUGAAGAGCAUUGGUUUUUUG [A5U G51A G113A C124A],-3.34
15,GACCUAUCUGCCCUCAGAGCUCGAGAACAUCUUCGGAUGCAGAGGAGGCAGGCUUCGGUGGCGCGAUAGCGCCAACGUCCUCAACCUCCAAUGCAUCCCACCACAUGAUGAUGCUUGAAGAGCCUUGGUUUUUUG [A5U C115U],-1.6
16,GACCUAUCUGCCCUCAGAGCUCGAGAACAUCUUCGGAUGCAGAGGAGGCAGGCCUCGGUGGCGCGAUAACGCCAACGUCCUCAACCUCCAAUGCAUCCCACCACAUGAUGACGCCUGAAGAGCCUUGGUUUUUUG [A5U U54C G69A U112C],-0.469
17,GACCUAUCUGCCCUCAGAGCUCGAGAACAUCUUCGGAUGCAGAGGAGGCAUGCUUCGGUGGCGCGAUAGCGCCAACGUCCUCAACCUCCAAUGCAUCCCACCACAUGAUGAUGCCUGAAGAGCCUUGGUUUUUUG [A5U G51U],-3.03
18,GACCUAUCUGCCCUCAGAGCUCGAGAACAUCUUCUGAUGCAGAGGAGGCAGGCUUCGGUGGCGCGAUAGCGCCAACGUCCUCAACCUCCAAUGCAUCCCACCACAUGAUGAUGCCUGAAGAGCCUUGGUUUUUUG [A5U G35U],-5.72
19,GACCUAUCUGCCCUCAGAGCUCGAGAACAUCUUCCGAUGCAGAGGAGGCAGGCUUCGGUGGCGCGAUAGCGCCAACGUCCUCAACCUCCAAUGCAUCCCACCACAUGAUGAUGCCUGAAGAGCCUUGGUUUUUUG [A5U G35C],-4.38
20,GACCUAACUGCCCUAAGAGCUCGAGAACAUCUUCGGAUGCAGAAGAGGCAGGCUUAGGUAGCGCGAUAGCGCCAACGUCCUCAACCUCCAAUGCAUCCCACCACAUGAUGAUGCCUGAAGAGCCUUGGUUUUUUG [A5U U7A C15A G44A C56A G60A],-3.35
21,GACCUAUCUGCCCUCAGAGCUCGAGAACAUCUUCGGAUGCAGAGGAGGCAGGCUUCGGUGGCGCGAUAGCGCCAACGUCCUCAACCUCCAAUGCAUCCCACCACAUGAUGAUGCCUGAAGAGCCUUUGUUUUUUG [A5U G127U],-2.48
